Positions count from the first letter of the chain named.
Key:
FLAG tag [1] = molecular target: T1, FLAG tag; experiment: SPR bivalent
T1 chain: DYKDDDDK

FLAG tag [2] = molecular target: T1, FLAG tag; experiment: SPR

B1: Parental (mouse VH/VL, human constant regions) (antibody, V domains shown)
VH: QVQLQQSAGELARPGASVKMSCKASGYSFTTYTIHWVKQRPGQGLEWIGYINPSSGYAAYNQNFKDETTLTADKSSSTAYMQLSSLTSEDSAVYYCAREKFYGYDYWGQGTTLTVSS
VL: DVLMTQLPLSLPVSLGDQASISCRSSQSIVHRNGNTYLEWYLLKPGQSPKLLIYKVSNRFSGVPDRFSGSGSGTDFTLKISRVEAEDLGVYYCFQGSHVPYTFGGGTKLEIK
Kd (FLAG tag [1]): 0.96 nM

B2: V7 scFv (antibody, V domains shown)
VH: QVQLVQSGAEVKKPGASVKVSCKASGYSFTTYTMHWVRQAPGQGLEWMGYINPSSGYAAYNQKFQGRVTMTADKSTSTAYMELSSLRSEDTAVYYCAREKFYGYDYWGQGTTVTVSS
VL: DVVMTQSPDSLAVSLGERATINCKSSQSIVHRNGNTYLEWYQLKPGQPPKLLIYKVSNRFSGVPDRFSGSGSGTDFTLTISSLQAEDVAVYYCFQGSHVPYTFGGGTKLEIK
Kd (FLAG tag [2]): 15 nM

B3: V3 scFv (antibody, V domains shown)
VH: B2 VH with M34I, M48I, M70L
VL: B2 VL
Kd (FLAG tag [2]): 19 nM

B4: V4 scFv (antibody, V domains shown)
VH: B2 VH with M34I, M48I, M70L
VL: B2 VL with L43Q
Kd (FLAG tag [2]): 22 nM

B5: V7 IgG (antibody, V domains shown)
VH: B2 VH
VL: B2 VL
Kd (FLAG tag [1]): 1.3 nM

B6: V3 IgG (antibody, V domains shown)
VH: B2 VH with M34I, M48I, M70L
VL: B2 VL
Kd (FLAG tag [1]): 1 nM

B7: V4 IgG (antibody, V domains shown)
VH: B2 VH with M34I, M48I, M70L
VL: B2 VL with L43Q
Kd (FLAG tag [1]): 0.91 nM

Reference: patent publication US20260356982 (published 2026)
